What was measured:
[1] = biological target: T1, Toll-like receptor 2 (TLR2) (Homo sapiens, UniProt O60603); test: Pull-down / in vitro interaction assay with TLR2; format: binding
T1 construct: 13; TLR2; 17; pIRES-FLAG; FLAG; Mammal; FLAG (C); expressed in transfected cells; host or cells: HEK 293T (human)
Method: Then, Strep-tagged AmTARS, AmTARS having deletions of two functional site (AmTARSΔ1Δ2), and FLAG-tagged TLR2 were transduced into human-derived HEK 293T cells through PEI, and thereafter, the cells were lysed using a lysis buffer containing 50 mM Tris-HCl (pH 7.5), 100 mM NaCl, 1% NP-40, 1 mM EDTA, 0.25% Na-deoxycholate, and a protease inhibitor cocktail. The cell lysates each were incubated with Strep Tactin beads and washed with a buffer containing 137 mM NaCl, 2.7 mM KCl, 10 mM Na2HPO4, 1.8 mM KH2PO4, and 1 mM EDTA, and proteins attached to the beads were eluted and analyzed by immunoblotting.
In addition, His-tagged AmTARS and FLAG-tagged protein were mixed at a ratio of 1:2, incubated with Ni-NTA beads, and then washed with a buffer containing 50 mM Tris-HCl (pH 8.0), 300 mM NaCl, 30 mM imidazole, and 1% NP-40, and the proteins attached to the beads were eluted and identified on SDS-PAGE gel.

Raw 264.7 cells = test: ELISA of immune cytokine secretion in LPS-treated Raw 264.7 cells; format: cell-based, mouse; conditions: Raw 264.7, LPS, 24 h
Method: Next, to determine whether the regulation of immune cytokine secretion by AmTARS in an inflammatory environment was induced by the two functional sites, the mouse-derived immune cell Raw 264.7 cells were treated with LPS to induce an immune response by the method as in Example 3, and treated with AmTARS, ΔU1AmTARS, and ΔU2AmTARS for 24 h separately to obtain cell cultures. The obtained cell cultures were analyzed for Immune cytokine secretion by way of the same method as in Example 2.

[2] = system: peritoneal macrophages from TLR2-KO mice; test: M2 macrophage polarization in TLR2-KO mice under non-inflammatory conditions; format: in vivo, mouse; conditions: 24 h
Method: (A and B) AmTARS interacts directly with TLR2. Pull-down assay using lysates of HEK 293T cells transfected with Strep-AmTARS and TLR2-FLAG (A). The proteins precipitated by an anti-Strep antibody were analyzed by western blotting. In vitro interaction assay using purified TLR2-FLAG and His-tagged AmTARS proteins (B). Purified TLR2-FLAG was mixed with purified His-tagged AmTARS protein. His-tagged protein was precipitated by Ni-NTA, eluted, and analyzed by SDS-PAGE. (C) TLR2-dependent anti-inflammatory function of AmTARS in BMDMs (n=6 per group). (D) The unique regions within AmTARS are essential for anti-inflammatory function in a TLR2-dependent manner (n=8 per wild-type group and n=6 per TLR2 KO group). BMDMs from WT or TLR2-KO mice were treated with the indicated proteins (C and D). (E-I) TLR2-dependent function of AmTARS in vivo. WT or TLR2-KO mice with DSS-induced colitis were injected with either PBS or AmTARS. Daily changes in disease activity scores (E). Intestinal epithelial damage, as analyzed by H&E staining (F), and damage scores (G) (n=3 per group). […] After 24 h, PECs were isolated, and the percentage of M2 macrophages (CD206+CD11b+F4/80+) was measured by flow cytometry. […] P-values were calculated by an unpaired two-tailed Student's t-test.

[3] = system: mouse model of dextran sulfate sodium (DSS)-induced colitis; test: DSS-induced colitis (inflammatory bowel disease) mouse model, intraperitoneal administration; format: in vivo; conditions: for distribution of B cells in the colon: normal mice
Method: We evaluated the anti-inflammatory function of AmTARS in a mouse model of dextran sulfate sodium (DSS)-induced colitis. First, we assessed dose-dependent responses (i.e., changes in body weight and colon length) to intraperitoneal (i.p.) administration of AmTARS (0.05-0.4 mg/kg) once every other day for 10 days (FIG. 10A).
The disease activity score was calculated by adding up scores ranging from 0 to 4 points for each item of bloody stool, diarrhea, and weight loss, and the epithelial damage score was calculated by assigning 0 to 4 points according to the degree of colon tissue damage.
Next, to measure IgA, mouse feces were collected and diluted in PBS containing a protein inhibitor, and then a supernatant with impurities removed was obtained, and 100 μL was placed in each well of a 96-well plate to perform protein coating at 4° C. for 2 h. The plate was washed three times with a washing solution (50 mM Tris, 0.2% in PBS) and then incubated with 100 μL of blocking solution at room temperature for 1-2 h, followed by washing. HRP conjugated IgA antibody (1:30000) was added and then incubated at room temperature for 1 h, followed by washing. Thereafter, 100 μL of a substrate solution was added, followed by incubation for 30 min, and then 50 μL of a stop solution was added, followed by measurement at 405-450 nm by an ELISA reader. […]

[4] = DSS-induced colitis mice, i.p., AmTARS 0.2 mg/kg
[5] = DSS-induced colitis mice, particularly proximal colon, versus control mice
[6] = i.p. 0.05-0.4 mg/kg once every other day for 10 days
[7] = inflammatory bowel disease mouse model
[8] = normal mice (control of B cell-deficient experiment)

T1 sequence (O60603 21-784): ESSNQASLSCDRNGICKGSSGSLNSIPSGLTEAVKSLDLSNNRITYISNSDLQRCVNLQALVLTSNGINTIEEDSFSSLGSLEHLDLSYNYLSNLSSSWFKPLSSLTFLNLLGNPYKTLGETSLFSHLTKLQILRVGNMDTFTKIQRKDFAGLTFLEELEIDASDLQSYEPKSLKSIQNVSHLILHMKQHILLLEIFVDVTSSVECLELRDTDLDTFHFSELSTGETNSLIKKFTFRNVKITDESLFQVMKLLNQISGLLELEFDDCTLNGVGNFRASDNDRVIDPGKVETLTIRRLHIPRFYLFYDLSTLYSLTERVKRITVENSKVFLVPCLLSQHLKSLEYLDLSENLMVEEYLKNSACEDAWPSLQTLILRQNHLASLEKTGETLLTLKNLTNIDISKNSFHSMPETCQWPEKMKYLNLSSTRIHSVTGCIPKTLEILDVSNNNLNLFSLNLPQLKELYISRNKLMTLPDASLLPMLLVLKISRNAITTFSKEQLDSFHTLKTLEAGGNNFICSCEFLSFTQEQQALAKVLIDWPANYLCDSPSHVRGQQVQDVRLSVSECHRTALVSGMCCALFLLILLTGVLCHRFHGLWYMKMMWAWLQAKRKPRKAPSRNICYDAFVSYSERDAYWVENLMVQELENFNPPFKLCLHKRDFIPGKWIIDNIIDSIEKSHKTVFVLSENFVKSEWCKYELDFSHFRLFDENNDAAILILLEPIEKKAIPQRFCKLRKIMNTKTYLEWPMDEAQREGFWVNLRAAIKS

B1: Akkermansia muciniphila-derived threonyl-tRNA synthetase (TARS) (protein)
chain: MSEHKERKTLEERQQMSDLERLRHSCAHVLATAICRLWPDAQLAGGPAVDNGFYYDVELDHRISTEDFERIEEEMKKVVKENQVFQKEVISRADAMKMAESGELGALGPRSEPSRFKIDLLNDIPEDEEISLYRNGDFTDLCAGPHVGRTGNCKAFKIMSVASAFYKGDKNRPMLQRIYGTCFPNRTQLDEHLERLEEARRRDHRKLGRELGLFCIDESVGQGLILWKPKGALIRRSLQDFITEELDKLGYSQVYTPNIGKLDLYRTSGHFPYYQESQYAPIPERDAMEKLSQEGASCAELFNGLATGTIEGYMLKPMNCPHHIKIYANDAHSYRDLPVRLAEFGTVYRWEQSGELGGMTRVRGFTQDDAHIFCTPDQLAGEIRQCLGIVKTIFGTLGMTDYRVRLSMRDPESDKYVGSPENWDKAEQALREAAEWLGADYSEEAGEAAFYGPKIDFIVRDAIGREWQLGTVQVDYNLPERFDLHYTGADNKPHRPVMVHRAPFGSMERFTGLLIEHFEGKFPTWLSPEQVRVLPISDKVTDVAAAHRTALAARGVRVTVDETPDKIGAKIRNARLDRVPYMLVLGQREAEDGTVSVRHRDKGDLGAMPFEQFADLVAREIAERHISPVI
modifications: Akkermansia muciniphila TARS
interaction with TLR2 among candidates tested (pull-down) ([1]; HEK 293T cells, Strep-AmTARS and TLR2-FLAG): interacted only with TLR2 | direct interaction with TLR2 (in vitro pull-down) ([1]; purified TLR2-FLAG and His-tagged proteins, Ni-NTA): interacts directly with TLR2 via the U2-containing catalytic domain (CD) | secretion of IL-6 (Raw 264.7 cells): reduced in a protein concentration-dependent manner | secretion of IL-10 (Raw 264.7 cells): increasingly secreted in an AmTARS concentration-dependent manner | secretion of TNF-α (Raw 264.7 cells): reduced in a protein concentration-dependent manner | M2 macrophage polarization of peritoneal macrophages ([2]; TLR2-KO mice, non-inflammatory conditions): did not cause M2 macrophage polarization | M2 macrophages in PECs isolated from TLR2-KO mice (FIG. 28K) ([2]; TLR2-KO): no M2 macrophages were observed | therapeutic effects on colitis pathology ([3]; AmTARS 0.2 mg kg-1 versus mIL-10 0.02 mg kg-1): comparable with those of IL-10 | IL-10-positive macrophage (CD11b+F4/80+IL-10+) numbers within colonic cells ([3]; DSS-induced colitis mice): restored | IL-10 levels in serum ([3]; DSS-induced colitis mice): increased | body weight loss [3, 4]: ameliorated | colon shortening / shortening of the intestine [3, 4]: ameliorated | disease activity scores [3, 4]: ameliorated | disruption of the epithelial lining [3, 5]: significantly lower | epithelial damage score [3, 5]: significantly lower | colitis-induced infiltration of inflammatory monocytes (CD11b+F4/80−) ([3]; colon cells, DSS-induced colitis mice): significantly suppressed | body weight loss ([3]; i.p. 0.4 mg/kg, up to 7 days): significantly attenuated | body weight loss, dose response [3, 6]: attenuated body weight loss and colon shortening in a dose-dependent manner | colon shortening, dose response [3, 6]: attenuated body weight loss and colon shortening in a dose-dependent manner | secretion of the cytokine IL-10 in the mouse plasma [3, 7]: increased the secretion | distribution of B cells in the colon [3, 7]: increase in B cells | distribution of B cells in the colon ([3]; inflammatory bowel disease mouse model, listed as TARS): significantly increased | amount of IgA increased due to an inflammatory response ([3]; mouse feces, ELISA): reduced the amount of IgA | colon tissue damage due to inflammatory bowel disease [3, 8]: alleviated | intestine length reduction due to inflammatory bowel disease [3, 8]: alleviated

— patent US12636342B2, “TARS derived from Akkermansia muciniphila or fragment thereof, and use thereof” (KOREA RESEARCH INSTITUTE OF BIOSCIENCE AND BIOTECHNOLOGY, priority 2020, dated 2026)
